# ± gives the half width of the 95% confidence interval.
# Experiment: folding stability dG unfold from chymotrypsin proteolysis; higher = more stable
# How it was run: (§1)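 How resistant each design was to proteolysis was captured as K50, inferred by Bayesian fitting of sequencing counts. Unfolding free energy was then derived relative to a sequence-predicted unfolded-state K50 and a shared folded-state K50, per protease or combined. Digestion used trypsin and chymotrypsin at 11 threefold-diluted concentrations plus a no-protease condition, on mini-proteins under 80 residues without cysteine in a PA-tagged cDNA display construct. Designs were kept only when AlphaFold2 dimer inter-PAE was above 15.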
row,Sequence,folding stability dG unfold [kcal/mol]
1,SAGGTAEELAKNIADNLQKAGWIKKVEVEVHPSPDGNIMVRIEIKIEPPPPPPPPKVEYDENGKPRYDSAGG [r13_957_TrROS],0.662 ± 0.23
2,SAGGKKKKIIIVLSKEEAEKKAEELKKELEKKGIEVEEVKVVEGMSEEEVKELAEKEKKPVIVIEPKSAGGS [r16_94_TrROS_Hall],1.27 ± 0.075
3,SAGGQRIEFEVQPNPENGMIFIKVKFQQMEPDPNGNKETREITHTVMVKLPPGAKPGEKIEIDIPPNMSAGG [r13_450_TrROS],0.828 ± 0.25
4,SAGMTSVEKRTLTFETEEEAEKEIKKIADELKKKGYKTEVKIEEVTKEKTEKGDSRYKVTATMKITKKESAG [r5_158_JUSTAS],0.792 ± 0.14
5,SASSITVSYDESTGVTTVTVDGGGFTFTVPNPEGKTLTVTVTQEALPDGTTRVTVTITFPDGSTTTVVVSAG [r14_675_JUSTAS],5 ± 0.18
6,SAGGSAGGSAGGSPYVQIRFEIPVWKFKPGGWEPVNPMPIPIWVPADDPPAAKDIAEEISAGGSAGGSAGGS [r4_153_TrROS],0.839 ± 0.18
7,SAGGIKLPPWFKKLADILQEEGYKIRIEPVNGYWVIRVDGKVYPSPEDMEDNRDDPGVDRVIVIPFPSAGGS [r16_275_TrROS],3.45 ± 0.12
8,SAGGSAGGSASITFMLMKFDPEDNRVEVYTYKIKIERDPNGLKKFKIEPVKRQRINPDDLKAISAGGSAGGS [r12_374_TrROS],3.48 ± 0.09
9,SAGGSAGGSMNTTTTPTAVPAGATLTVTVTSSSKSYSVPPAGPVTVTTTSGSSGTTVTVDVVASAGGSAGGS [r12_919_JUSTAS],0.618 ± 0.051
10,SAGGSAGGSAGGSVWIMIPLEEIKDLLPPGWTVEVEPQPMPNNGYIMVPVEIVPPDNAKSAGGSAGGSAGGS [r4_119_TrROS],0.861 ± 0.13
11,SAGGSAPGVITFMLPLDDIPPDPDGKWTHNEIKDHIRPFIQEAFGKDDIEIDVSPHPNGWVRITIRSAGGSA [r15_562_TrROS],2.76 ± 0.056
12,SKTVIIEVPAKDLDKIKELIKKLKPGQKVKIVFKDANGKLITVTIEVKPAPPPKISLEELSEEQRKALEKSA [r9_1103_TrROS_Hall],1.89 ± 0.23
13,SAGGSAGGSAGGPDPEAYPFRYPDREFVLVRNPDEPDTYTILYPDDKVETVPAEDILPESAGGSAGGSAGGS [r10_556_TrMRF],-0.0442 ± 0.098
14,SAGGSASSPGTPVKLNVNAIITKKLPDGTITTEPGRTLDLPEEEAIEYLKSLPSSYSVEIESIVVESAGGSA [r15_833_JUSTAS],0.0371 ± 0.15
15,SAGGKLTITVKVNENGELIATVEITEVVENAKPGDVLTVKAKVVNPKTKETKEIEAKIKVENGKLVLESAGG [r13_208_TrROS_Hall],2.33 ± 0.069
16,SAGGSAGGSAGPWVWIIMIHMEIERVTVEVRPDPDGKWEYKLEITIKIEIHIIPLPPGATSAGGSAGGSAGG [r11_24_TrROS],5.37 ± 0.11
17,SAGGSAGGSMPGETVTLNVKTTVEVTTTLSSPSGSPFPVSVTREVTIPITVSSEELKKGLITLESAGGSAGG [r6_138_JUSTAS],0.291 ± 0.15
18,SAGGPPFKIKEINIQYNPDAGYVTMTFTFDDGATVEAMISPEEGRIPGKVEVPGKEIEHEFEIPVPPSAGGS [r8_363_TrROS],1.5 ± 0.099
19,SAGGSAGGSAGDFKIKDVEVERPPGRHRVEIRLPGNKKPIKIDNVPTPDDAEDAVKELLKSAGGSAGGSAGG [r11_183_TrROS],0.975 ± 0.056
20,SAGGSAGGSIPPDVPVDLGAEVEYFPPGGVRRVRFSAPDGTPVATATFVFRGGELVEVRIEPASAGGSAGGS [r12_264_TrMRF],2.07 ± 0.13
21,SAGGSAGGSAPFNINDPNIGEVEIFPGPNAVILIKLPDGGYLVITNNGEDNVSIELVSDDESAGGSAGGSAG [r3_62_TrMRF],0.468 ± 0.16

row,Sequence,folding stability dG unfold [kcal/mol]
1,SAGGSAGGMVYITVDIKKTDPLNGTEREEVITVKVNPDEVEKVIEELKSAPVNVEILKVTIIPPSAGGSAGG [r6_151_JUSTAS],1.4 ± 0.043
2,SKGKKYELIVLLFKVEDPEKYPVEKKVSVPKEFIDFLKKKGFKIIEIKTRVIPSSDGSVYVEHVALVEVDSA [r9_465_TrMRF],4.16 ± 0.13
3,SAGGSKKEIEALKGKTVTFPKIRDPKTNELLEPVKVKIVEVKYDKDTKKIYIKVEVDGKIYTFEIDSAGGSA [r2_314_TrROS_Hall],2.85 ± 0.062
4,SAGMKIKIKLENGEEIEIDKENPVIKIKNKETGEEVELVFDPENEDEIYIFNKKTKKLIAKFKITEIEPSAG [r5_761_TrROS_Hall],3.21 ± 0.084
5,SAGGSAGGSASAEEEARRLAPEGKLVYKITKGNETTIVALTPEEAEALKKKNPDVEIEPILLSAGGSAGGSA [r18_198_JUSTAS],3.176 ± 0.021
6,SAGGATITLEPGTFTIEFPENELVIPVPVPEERPDVSPEEAAREIVEELREKYGLPPPEDLTVELAPSAGGS [r8_402_JUSTAS],0.184 ± 0.27
7,SAGGSAAPLVLPVRIYGPNENVTAEASEYDPGTGIVRLTVTHPDGTKTTLTFTGPAALLPPDADLNSAGGSA [r15_596_TrMRF],0.849 ± 0.066
8,SAGGSAGMNRVSLKPLPDGTYEVTITYPDGSTSTYTVPGPAVSLEEILKRLNIPESIEVEDVEPLGSAGGSA [r15_167_JUSTAS],3.87 ± 0.059
9,SAGGGMRAVEVTVTLTVPSSTSVEEAVERVKAEFEAAGLEAEPVSVTVTPVPGSVTVTVRLRVLRPPASAGG [r13_351_JUSTAS],3.48 ± 0.049
10,SMKVTVSVTYNPETQTLELRFTVYERDPNGNWVPTASFPITLPVTIPAPPVPVVEVPEDATLPEDVALADSA [r9_888_TrMRF],5.14 ± 0.21
11,SAGGSITLPPVELPNGEKVTVTIEITPVPGAPPEERYRVTVTRTNPKTGTTETTELEVTRKGSVVTLESAGG [r13_208_JUSTAS],1.5 ± 0.022
12,SAGGKEEKVVEIEIKKEKLKKSKDGKVYSAEEIAKKLKKELPEENVEVEIVSYDKEKGVVKIKIKVKSAGGS [r16_284_TrROS_Hall],1.74 ± 0.18
13,SAGGKTYTIVLPIPPNVPLEEYIKKIEKLLKKLKKNVPISFNKQKKLPNGYYLINFTLTDNKVTGFGSAGGS [r8_7_TrMRF],1.91 ± 0.12
14,SAGGSAGGSSKAEELAKKLGVKVKIIDKFTLPGNKKVILAKVKFPGKGYALVLYDGKTPVLLPSAGGSAGGS [r12_279_TrMRF],1.86 ± 0.099
15,SAGGSAGGSAGGPIPGSTIPSVPVKIVNIHPDGTKTEYFNSDIPIDALKEKFPGEIEFESSAGGSAGGSAGG [r17_125_TrMRF],0.734 ± 0.029
16,SAGMTIVIEIPSSTSYEDAVKAIKKIAKEIKEKGKKFKIVVLTKDPKIAEAIKKALEELGIPLEVKIGSAGG [r19_268_TrMRF],2.91 ± 0.043
17,SAGGEPGALSSSTYTITAPAKSVSKTVTVSYNPADGTATITFPESGKTITVPAVSDEEVLALIKEILLSAGG [r13_439_JUSTAS],-0.67 ± 0.31
18,SAMKIYTLPDGSRLIVIPDPYSDSLSVLLVTRSPDGTYHVTLIRYHPNGEKETFTRTGDLETAIRELLSSAG [r14_179_TrMRF],3.588 ± 0.028
19,SAGGSAGGSAMQPIRIKITLYNPDNGDTRTYTVEVPDPNMSLDAIAKQLPPGYRIKKVSIMSAGGSAGGSAG [r3_80_TrROS],3.815 ± 0.033
20,SAGGSAGGMTIKIEVNGKIIEIELPEGIKEITKIEIKKDGTITLYIKDNKKKITIKLDKLKKLKSAGGSAGG [r6_369_TrROS_Hall],3.01 ± 0.1
21,SPPGLRIRIESPDNGEPIPFPIPPNVEVDVKRDKNGNFIATIKIQNPENGKKWTIEIDAPMRIVEIEPVPSA [r9_467_TrROS],3.35 ± 0.16

# Experiment: folding stability dG unfold (combined trypsin and chymotrypsin); higher = more stable
# How it was run: as §1
row,Sequence,folding stability dG unfold [kcal/mol]
1,SAGGTAEELAKNIADNLQKAGWIKKVEVEVHPSPDGNIMVRIEIKIEPPPPPPPPKVEYDENGKPRYDSAGG [r13_957_TrROS],0.924 ± 0.39
2,SAGGKKKKIIIVLSKEEAEKKAEELKKELEKKGIEVEEVKVVEGMSEEEVKELAEKEKKPVIVIEPKSAGGS [r16_94_TrROS_Hall],0.813 ± 0.14
3,SAGGQRIEFEVQPNPENGMIFIKVKFQQMEPDPNGNKETREITHTVMVKLPPGAKPGEKIEIDIPPNMSAGG [r13_450_TrROS],1.1 ± 0.39
4,SAGMTSVEKRTLTFETEEEAEKEIKKIADELKKKGYKTEVKIEEVTKEKTEKGDSRYKVTATMKITKKESAG [r5_158_JUSTAS],0.76 ± 0.17
5,SASSITVSYDESTGVTTVTVDGGGFTFTVPNPEGKTLTVTVTQEALPDGTTRVTVTITFPDGSTTTVVVSAG [r14_675_JUSTAS],5.06 ± 0.17
6,SAGGSAGGSAGGSPYVQIRFEIPVWKFKPGGWEPVNPMPIPIWVPADDPPAAKDIAEEISAGGSAGGSAGGS [r4_153_TrROS],0.849 ± 0.09
7,SAGGIKLPPWFKKLADILQEEGYKIRIEPVNGYWVIRVDGKVYPSPEDMEDNRDDPGVDRVIVIPFPSAGGS [r16_275_TrROS],3.26 ± 0.15
8,SAGGSAGGSASITFMLMKFDPEDNRVEVYTYKIKIERDPNGLKKFKIEPVKRQRINPDDLKAISAGGSAGGS [r12_374_TrROS],2.98 ± 0.25
9,SAGGSAGGSMNTTTTPTAVPAGATLTVTVTSSSKSYSVPPAGPVTVTTTSGSSGTTVTVDVVASAGGSAGGS [r12_919_JUSTAS],0.53 ± 0.043
10,SAGGSAGGSAGGSVWIMIPLEEIKDLLPPGWTVEVEPQPMPNNGYIMVPVEIVPPDNAKSAGGSAGGSAGGS [r4_119_TrROS],0.552 ± 0.16
11,SAGGSAPGVITFMLPLDDIPPDPDGKWTHNEIKDHIRPFIQEAFGKDDIEIDVSPHPNGWVRITIRSAGGSA [r15_562_TrROS],2.69 ± 0.079
12,SKTVIIEVPAKDLDKIKELIKKLKPGQKVKIVFKDANGKLITVTIEVKPAPPPKISLEELSEEQRKALEKSA [r9_1103_TrROS_Hall],1.79 ± 0.28
13,SAGGSAGGSAGGPDPEAYPFRYPDREFVLVRNPDEPDTYTILYPDDKVETVPAEDILPESAGGSAGGSAGGS [r10_556_TrMRF],0.3 ± 0.06
14,SAGGSASSPGTPVKLNVNAIITKKLPDGTITTEPGRTLDLPEEEAIEYLKSLPSSYSVEIESIVVESAGGSA [r15_833_JUSTAS],-0.115 ± 0.087
15,SAGGKLTITVKVNENGELIATVEITEVVENAKPGDVLTVKAKVVNPKTKETKEIEAKIKVENGKLVLESAGG [r13_208_TrROS_Hall],2.16 ± 0.12
16,SAGGSAGGSAGPWVWIIMIHMEIERVTVEVRPDPDGKWEYKLEITIKIEIHIIPLPPGATSAGGSAGGSAGG [r11_24_TrROS],5.26 ± 0.17
17,SAGGSAGGSMPGETVTLNVKTTVEVTTTLSSPSGSPFPVSVTREVTIPITVSSEELKKGLITLESAGGSAGG [r6_138_JUSTAS],0.229 ± 0.13
18,SAGGPPFKIKEINIQYNPDAGYVTMTFTFDDGATVEAMISPEEGRIPGKVEVPGKEIEHEFEIPVPPSAGGS [r8_363_TrROS],1.38 ± 0.19
19,SAGGSAGGSAGDFKIKDVEVERPPGRHRVEIRLPGNKKPIKIDNVPTPDDAEDAVKELLKSAGGSAGGSAGG [r11_183_TrROS],0.683 ± 0.1
20,SAGGSAGGSIPPDVPVDLGAEVEYFPPGGVRRVRFSAPDGTPVATATFVFRGGELVEVRIEPASAGGSAGGS [r12_264_TrMRF],2.05 ± 0.15
21,SAGGSAGGSAPFNINDPNIGEVEIFPGPNAVILIKLPDGGYLVITNNGEDNVSIELVSDDESAGGSAGGSAG [r3_62_TrMRF],1.15 ± 0.15

# Reference: the supplement of paper PMC12764529
